assay: soluble on expression in E. coli; label from the status in PepcDB or PDB records

Sequence | soluble on expression in E. coli
VVGGTDADEGEWPWQVSLHALGQGHICGASLISPNWLVSAAHCYIDDRGFRYSDPTQWTAFLGLHDQSQRSAPGVQERRLKRIISHPFFNDFTFDYDIALLELEKPAEYSSMVRPISLPDASHVFPAGKAIWVTGWGHTQYGGTGALILQKGEIRVINQTTCENLLPQQITPRMMCVGFLSGGVDSCQGDSGGPLSSVEADGRIFQAGVVSWGDGCAQRNKPGVYTRLPLFRDWIKENTGV | soluble
VVTRIVILGGGPAGYEAALVAATSHPETTQVTVIDCDGIGGAAVLDDCVPSKTFIASTGLRTELRRAPHLGFHIDFDDAKISLPQIHARVKTLAAAQSADITAQLLSMGVQVIAGRGELIDSTPGLARHRIKATAADGSTSEHEADVVLVATGASPRILPSAQPDGERILTWRQLYDLDALPDHLIVVGSGVTGAEFVDAYTELGVPVTVVASQDHVLPYEDADAALVLEESFAERGVRLFKNARAASVTRTGAGVLVTMTDGRTVEGSHALMTIGSVPNTSGLGLERVGIQLGRGNYLTVDRVSRTLATGIYAAGDCTGLLPLASVAAMQGRIAMYHALGEGVSPIRLRTVAATVFTRPEIAAVGVPQSVIDAGSVAARTIMLPLRTNARAKMSEMRHGFVKIFCRRSTGVVIGGVVVAPIASELILPIAVAVQNRITVNELAQTLAVYPSLSGSITEAARRLMAHDDLDCTAAQDAAEQLALVPHHLPTSN | soluble
WNIHGKESCDVQLYIKRQSEHSILAGDPFELECPVKYCANRPHVTWCKLNGTTCVKLEDRQTSWKEEKNISFFILHFEPVLPNDNGSYRCSANFQSNLIESHSTTLYVTDVKHHHHHHHH | soluble
WRKDIVLPKDQAKGVRPYNPKFKDSEYFSRYNALINDERLIEFAKKNNYKITFFPHPDIQQQIVDFEKHDYVEFADYNSSYQMLFNSSNIMITDFSSVAFDFAYEKKPVIYYQYEKSYHFKLDYYDYKKMGFGDVLENHNSLVDKVIYYMKNNSRMEDKYRKRVDNFFAYTDKNNRNRIYNAILE | not soluble
YFQSMEAEDFECSSHCSELSWRQNEQRRQGLFCDITLCFGGAGGREFRAHRSVLAAATEYFTPLLSGQFSESRSGRVEMRKWSSEPGPEPDTVEAVIEYMYTGRIRVSTGSVHEVLELADRFLLIRLKEFCGEFLKKKLHLSNCVAIHSLAHMYTLSQLALKAADMIRRNFHKVIQDEEFYTLPFHLIRDWLSDLEITVDSEEVLFETVLKWVQRNAEERERYFEELFKLLRLSQMKPTYLTRHVKPERLVANNEVCVKLVADAVERHALRAENIQSGT | soluble
YGAWAAQELQAKLAEIGAPIQGNREELVERLQSYTRQTGIVLNRP | soluble
YLASDGKTIIMVGRNNLQNEELTFKIAKKGELWFHAKDIPGSHVVIKDNLNPTDEVKTDAAELAAYYSKARLSNLVQVDMIDVKKLNK | not soluble
YLGGDLKYYGHTIKKANVQAIINYAVQYNILPSGIITQLYLESFWGDSTVGKRDNNWAGMSGGAQTRPSGVKVTTGMARPANEGGTYMHYASVDDFLKDYTYLLAKQGIYNVVGKKNIADYTKGLFRAGGAKYDYAAAGY | not soluble
YLLGHSLGELTCLSVNSLFSLKDLFDIANFRNKLMVTSTEKYLVAHNINRSNKFEMWALSSPRATDLPQEVQKLLNSPNLLSSSQNTISVANANSVKQCVVTGLVDDLESLRTELNLRFPRLRITELTNPYNIPFHNSTVLRPVQEPLYDYIWDILKKNGTHTLMELNHPIIANLDGNISYYIHHALDRFVKCSSRTVQFTMCYDTINSGTPVEIDKSICFGPGNVIYNLIRRNCPQVDTIEYTS | soluble
YNIYNNPKEANNRKDTVLYLMHKHNRINDKQYADAKKIDLKANLVERTKKERQVTGNEKNPEYDSYVNFVQSELMNNKYFKDKNLGSVLQSG | not soluble
YPFWAQQTYPETPREPTGRIVCANCHLAAKPTEVEVPQSVLPDTVFKAVVKIPYDTSVQQVGADGSKVGLNVGAVLMLPEGFKIAPEDRIPEELKEEIGDVYFQPYGEDKDNIVIVGPLPGEQYQEIVFPVLSPNPANDKNIHFGKYSVHVGGNRGRGQVYPTGEKSNNNLYSAAATGTISKIAKQEGEDGSVKYLVDIKTESGEVVSDTIPAGPELIVSEGQAVTAGDALTNNPNVGGFGQLDAEIVLQDANR | soluble
YTDRKNRIVEVDIASKAKRTVMQNPEGEFYEVNYSPDSQWITYTKSGANNMSVIYVYHLTSGKEYPVTE | not soluble
YTIEELVKQADQQFNGNIAELMIATEVEMSGRNREDIIKIMSRNLQVMKAAVTEGLTSTKSISGLTGGDAVKMDNYIKKGNSLSDTTILNAVRNAIAVNELNAKMGLVCATPTAGSAGCLPAVLATAIEKLDLSEKEQLEFLFTAGAFGLVIGNNASISGAEGGCQAE | not soluble
YTRRSIEKMVKTQVDSKVLDEKNKYYEQQLVTMKQTLESQRTVRHDLKNKLSPLIYLAESGKTDELVEQVQELGSLSVLGKIYADSGNITIDYIINLKLQALANKGVTIFCEINVPNDIDVVPFDLSTVLGNLIDNAAEALEYVQNEKWIGIKISYQVGFLMIQVANSFDGIVHLDNKKIISRKEDTENHGIGLTSIKKIAGKYDGEVVVQHDDKQFDVIVKLLA | not soluble
YYTDPSLIRQMWDKLERDGFTGGKILDPSMGTGNFFAAMPKHLREKSELYGVELDTITGAIAKHLHPNSHIEIKGFETVAFNDNSFDLVISNVPFANIRIADNRYDRPYMIHDYFVKKSLDLLHDGGQVAIISSTGTMDKRTENILQDIRETTEFLGGVRLPDSAFKAIAGTSVTTDMLFFQKHLDKGYVA | not soluble

— the DeepSol protein solubility set
